Km data for one protein are collected here from article PMC4678846.

Substrate in this data set: CC(C)(C)OC(=O)NCCCC[C@H](N)C(=O)O
Nature of the data set: purified protein. Conditions: wild-type tRNA^Pyl, 10 mM ATP, 10 mM MgCl2, pH 7.2, 37 °C, apparent, amino acid not given, BocK inferred.

For orientation: Km means the concentration of substrate that gives half-maximal velocity.

B1: MbPylRS (Methanosarcina barkeri str. Fusaro) (protein)
chain: MDKKPLDVLISATGLWMSRTGTLHKIKHYEVSRSKIYIEMACGDHLVVNNSRSCRTARAFRHHKYRKTCKRCRVSDEDINNFLTRSTEGKTSVKVKVVSAPKVKKAMPKSVSRAPKPLENPVSAKASTDTSRSVPSPAKSTPNSPVPTSAPAPSLTRSQLDRVEALLSPEDKISLNIAKPFRELESELVTRRKNDFQRLYTNDREDYLGKLERDITKFFVDRDFLEIKSPILIPAEYVERMGINNDTELSKQIFRVDKNLCLRPMLAPTLYNYLRKLDRILPDPIKIFEVGPCYRKESDGKEHLEEFTMVNFCQMGSGCTRENLESLIKEFLDYLEIDFEIVGDSCMVYGDTLDIMHGDLELSSAVVGPVPLDREWGIDKPWIGAGFGLERLLKVMHGFKNIKRASRSESYYNGISTNL
Take B1: the Km was 1030 ± 50 µM.
